Target: T1, human IL2Rβ Fc fusion protein (human) (UniProt P14784)
T1 sequence (looked up): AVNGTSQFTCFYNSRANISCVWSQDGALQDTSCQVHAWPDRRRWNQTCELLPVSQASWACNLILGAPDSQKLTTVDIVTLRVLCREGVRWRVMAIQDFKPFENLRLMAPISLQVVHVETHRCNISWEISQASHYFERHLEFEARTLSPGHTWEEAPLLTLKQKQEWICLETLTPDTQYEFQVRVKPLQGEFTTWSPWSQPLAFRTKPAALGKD
Experiment: ELISA, single concentration, anti-flag detection, E. coli-produced clone

B1: EP569 (clone 2021EP22-E03), E. coli-produced (ligand)
chain: APASSSTKKTQLQLEHLLLDLQMILNGINNYKNPKLTRMLTFKFYMPKKATELKHLQCLEEELKPLEEVLNLAQSKNFHLRRKESINHMIVVFPVLKGSETTFMCEYADETATIVEFLNRWITFSQSIISTLT
With B1 as the binder, how does the OD450 nm read?
Its OD450 nm is 0.871 OD450.
